Reference: US20240309087A1 (SHANGHAI JUNSHI BIOSCIENCES, published 2024)
Where a chain is given by its changes, count along the chain named.

T1: hCD112R mFC recombinant protein (human; murine, UniProt Q6DKI7 41-160)
T1 construct: range 41-160; expressed in 293E cells; also called hCD112R ECD mFC; hCD112R-ECD-mFC; not shown: murine IgG2a Fc domain (MX2-mFc vector)
T1 sequence (looked up): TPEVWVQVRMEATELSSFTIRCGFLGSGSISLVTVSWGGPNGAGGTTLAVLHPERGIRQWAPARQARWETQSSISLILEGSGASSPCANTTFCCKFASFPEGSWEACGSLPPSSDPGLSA

T2: human CD112R on Jurkat CD112R effector cells (human, UniProt Q6DKI7 1-326)
T2 sequence (looked up): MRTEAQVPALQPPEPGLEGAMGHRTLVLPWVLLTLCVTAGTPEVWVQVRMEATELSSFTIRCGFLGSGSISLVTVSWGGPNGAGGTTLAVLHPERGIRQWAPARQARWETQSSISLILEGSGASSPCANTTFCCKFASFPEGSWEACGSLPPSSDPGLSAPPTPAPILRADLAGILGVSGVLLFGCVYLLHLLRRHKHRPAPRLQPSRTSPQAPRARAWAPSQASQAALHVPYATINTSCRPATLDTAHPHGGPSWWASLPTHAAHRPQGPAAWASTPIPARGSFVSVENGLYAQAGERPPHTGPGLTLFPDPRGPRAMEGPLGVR

T3: recombinant cynomolgus monkey CD112R antigen (cynomolgus monkey, UniProt A0A2K5WVV8 1-322)
T3 construct: bought
T3 sequence: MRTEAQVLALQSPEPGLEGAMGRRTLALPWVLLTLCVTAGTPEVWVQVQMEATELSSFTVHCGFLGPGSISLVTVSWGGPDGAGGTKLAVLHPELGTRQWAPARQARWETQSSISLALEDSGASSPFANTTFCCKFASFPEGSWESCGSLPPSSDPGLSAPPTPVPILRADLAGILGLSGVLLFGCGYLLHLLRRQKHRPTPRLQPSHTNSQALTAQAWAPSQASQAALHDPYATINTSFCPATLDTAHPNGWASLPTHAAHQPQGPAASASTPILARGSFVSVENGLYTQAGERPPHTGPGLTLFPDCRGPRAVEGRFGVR

T4: human CD112R on CHO-CD112R cells (human, UniProt Q6DKI7 41-326)
T4 construct: whole, on cells; also called hCD112R; PVRIG
T4 sequence (looked up): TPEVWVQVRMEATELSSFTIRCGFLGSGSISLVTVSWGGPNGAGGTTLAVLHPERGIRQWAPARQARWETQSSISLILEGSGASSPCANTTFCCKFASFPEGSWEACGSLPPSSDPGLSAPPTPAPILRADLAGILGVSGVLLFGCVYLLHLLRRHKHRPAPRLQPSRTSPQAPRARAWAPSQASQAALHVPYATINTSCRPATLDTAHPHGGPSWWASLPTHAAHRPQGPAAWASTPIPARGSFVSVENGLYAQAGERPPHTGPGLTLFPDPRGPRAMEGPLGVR

B1: 6A6.1 (antibody, V domains shown)
VH: EVQLQQSGAELVRSGTSVTLSCTASGFNIRDYFIHWVKQRPEQGLEWIGWIIPASGDTDCAPIFQGKATLTADTFSNTAYLHLNSLTSEDTAVYYCNTWVWSPYAVDYWGQGTSVTVSS
VL: DVLMTQTPLSLPVSLGDQTSISCRSSQSIVHSNGNTYLHWYLQKPGQSPKLLIYKVSNRFSGVPDRFSGSGSGTDFTLKISRVEAEDLGVYYCFQGSHVPWTFGGGTRLEIK
notes: murine hybridoma antibody
B2: 6C6.1 (antibody, V domains shown)
VH: EVQLQQSGPELVRPGASVRISCKASGYTFTDYNMNWVKQSHGKSLEWIGYIYPYNGGAGYNQNFKNKATLTVDTYSRAAYMELRSLTSEDSAVYYCARERGMQRDYFDYWGQGTILTVSS
VL: DIQMTQSPASLSVSVGETVTITCRTSENIYSNLAWYQQKQGKSPQLLVYAATNLADGVPSRFSGSGSGTQFSLKINSLQSGDFGSYFCQHFWGTPYTFGGGTKLEIK
notes: murine hybridoma antibody
B3: 6D2.1 (antibody, V domains shown)
VH: EVQLQQSGPELVKPGASVKISCKASGYTFTDYNIHWVKQSHGKRPDWIGYNYPYNGGAGYNQNFRSRATLTVDKFSSTAYMELRSLTSEDSAVYYCAGEEVRRGPFYFWGQGTSVTVSS
VL: DIQMTQSPDSLSASVGETVTITCRTSENIYSFLVWYQQKQGKSPQLLVYNAKTLAEGVPSRFSGSGSGTQFSLKINSLQPEDFGTYYCQHYYGTPYTFGGGTKLEIK
notes: murine hybridoma antibody
B4: Chi-53 (antibody, V domains shown)
VH: DVKLVESGGGLVKLGGSLKLSCAASGFTFSSYHMSWIRQTPEKRLELVAAINSNGINTYYLDTVKGRFTISRDNAKNTLYLQMSSLKSEDTALYYCARHEDYYGFAMDYWGQGTSVTVSS
VL: SIVMTQTPKFLLVSAGDRVTITCKASQSVSNDVAWYQEKPGQSPKLLMYYVSHRFTGVPDRFTGSGYGTDFTFTINTVQAEDLAVYFCHQAYRSPWTFGGGTKLEIK
notes: chimeric
B5: Chi-61 (antibody, V domains shown)
VH: DVKLVESGGGLVKLGGSLKLSCAASGFTFSSYHMSWVRQTPEKRLELVAAISRDGDSTYYPDTVKGRFTISRDDAENTLYLQMSSLKSEDTALYYCSRHEDYFGFAMDSWGQGTSVTVSS
VL: B4 VL
notes: chimeric
B6: Chi-70 (antibody, V domains shown)
VH: B4 VH with K3Q, A23V, G55D, N74I, Y80H
VL: B4 VL with E38Q, H53N, H89Q
notes: chimeric
B7: Chi-69 (antibody, V domains shown)
VH: B4 VH with K3Q, A23V, G55D, N74I, Y80H
VL: B4 VL
notes: chimeric
B8: Chi-55 (antibody, V domains shown)
VH: B4 VH
VL: B4 VL with S30T, E38Q, H53N, R54H, F55Y, T63I, N76S, H89Q
notes: chimeric

target: T1, hCD112R mFC recombinant protein; assay: FACS competition, hCD112R mFc on CHO CD112 cells
Description: Unbound antibodies were then washed with a staining buffer and the cells were incubated with 1% (v/v) goat anti-mouse IgG Fc fluorescent secondary antibodies (Jackson ImmunoResearch) prepared in a staining buffer at 4° C. for 30 min in the dark. Finally, the cells were collected by using a flow cytometer, and the fluorescent antibodies bound to the cell surface were detected. Raw data were analyzed by using FlowJo to obtain MFI values, and a four-parameter curve fitting was performed by using GraphPad Prism software to obtain IC₅₀ values.

Row | IC50 [µg/mL] | Binder
1 | 0.145 | B1
2 | 0.0229 | B2
3 | 0.272 | B3

target: T2, human CD112R on Jurkat CD112R effector …; assay: cell-based or functional assay

Row | EC50, CD112R/CD112 reporter [µg/mL] | Relative activity (%), EC50 Ref/EC50 antibody [%] | Binder
4 | 0.0129 | 2430 | B4
5 | 0.019 | 1590 | B5
6 | 0.0139 | 1870 | B6
7 | 0.0187 | 1390 | B7
8 | 0.0131 | 2310 | B8

target: T1, hCD112R mFC recombinant protein; assay: FACS blocking: hCD112R mFc (5 µg/mL) binding to human CD112 on CHO CD112 cells, MFI-APC; unit from the axis (µg/mL), Table 8 says ng/ml
Description: (§1) Cells CHO CD112 overexpressing human CD112 were co-incubated with a hCD112R mFc protein solution (5 μg/mL) prepared in a staining buffer (PBS+1% FBS), and the chimeric anti-CD112R antibodies or the control antibodies at different concentrations (initial concentration: 100 μg/mL, 3-fold dilution, 10 concentration gradients) at 4° C. for 30 min. Unbound antibodies were then washed with a staining buffer and the cells were incubated with 1% (v/v) goat anti-mouse IgG Fc fluorescent secondary antibodies (Jackson ImmunoResearch) prepared in a staining buffer at 4° C. for 30 min in the dark. Finally, the cells were collected by using a flow cytometer (BD Canto II), and the fluorescent antibodies bound to the cell surface were detected. Raw data were analyzed by using FlowJo to obtain MFI values, and a four-parameter curve fitting was performed by using GraphPad Prism software to obtain IC₅₀ values. The positive control and the negative control were Ref (anti-CD112R antibody, University of Colorado, obtained by expression and purification according to the sequences in US20170240613) and the anti-KLH hu-IgG4 antibody, respectively.

Row | IC50 [µg/mL] | Binder
9 | 0.979 | B4
10 | 0.965 | B5
11 | 0.708 | B6
12 | 0.959 | B7
13 | 1.02 | B8

target: T3, recombinant cynomolgus monkey CD112R …; assay: ELISA, coated cynomolgus monkey CD112R; EC50 Ref/EC50 antibody
Description: (§2) A plate was coated with a recombinant cynomolgus monkey CD112R antigen (Acrobiosystems, Cat No. PVG-C5259) at a fixed concentration, and the chimeric anti-CD112R antibodies diluted in a gradient (initial concentration: 1 μg/mL, 2.5-fold gradient dilution, 12 concentration gradients in total) were added to bind to the antigen. Horseradish peroxidase (HRP)-conjugated mouse anti-human IgG4 Fc (Southern Biotech, 9200-05) was subjected to a 5000-fold dilution and used as a detection antibody for detection. The color development was performed with 0.1 mg/mL TMB, and finally stopped with 2 M hydrochloric acid. The plate was read at 420 nm/620 nm. EC₅₀ was obtained by fitting with a four-parameter logistic regression (4PL) model.

Row | Relative activity (%) | Binder
14 | 106 | B4
15 | 83.8 | B5
16 | 109 | B6
17 | 88.4 | B7
18 | 100 | B8

target: T1, hCD112R mFC recombinant protein; assay: FACS competition, hCD112R mFc on CHO CD112 cells; ratio Ref/antibody
Description: as §1

Row | Relative activity (%) | Binder
19 | 108 | B4
20 | 110 | B5
21 | 150 | B6
22 | 110 | B7
23 | 104 | B8

target: T3, recombinant cynomolgus monkey CD112R …; assay: ELISA, coated cynomolgus monkey CD112R
Description: as §2

Row | EC50 [µg/mL] | Binder
24 | 0.0033 | B4
25 | 0.005 | B5
26 | 0.00383 | B6
27 | 0.00474 | B7
28 | 0.00419 | B8

target: T4, human CD112R on CHO-CD112R cells; assay: FACS on CHO-CD112R cells
Description: (§3) CHO-CD112R cells (constructed in-house by Junshi, the amino acid sequence of CD112R in the construction of stable cell lines overexpressing CD112R comprises amino acids at positions Met1-Arg326 under NCBI accession No. Q6DKI7) overexpressing human CD112R were incubated with each of the chimeric anti-CD112R antibodies at different concentrations (initial concentration: 50 μg/mL, 5-fold dilution, 12 concentration gradients in total) at 4° C. for 30 min, and then washed and incubated with a fluorescence-labeled secondary antibody at 4° C. for 30 min in the dark. Finally, the cells were collected by using a flow cytometer (BD Canto II), and the fluorescent antibodies bound to the cell surface were detected. Raw data were analyzed by using FlowJo to obtain MFI values, the antibody dose-dependent binding curves were fitted by using GraphPad (FIG. 3, a and b) and EC₅₀ was calculated (Table 3). The positive control and the negative control were Ref (anti-CD112R antibody, University of Colorado, obtained by expression and purification according to the sequences in US20170240613) and anti-KLH hu-IgG4 antibody, respectively.

Row | EC50 [µg/mL] | Binder
29 | 0.627 | B4
30 | 0.107 | B5
31 | 0.26 | B6
32 | 0.262 | B7
33 | 0.14 | B8

target: T1, hCD112R mFC recombinant protein; assay: Biacore T200, antibody captured, hCD112R mFc injected
Description: Biacore T200 was used to assay the binding affinity of the anti-CD112R hybridoma antibodies for the recombinant hCD112R mFc protein. […] antibody fragments (Jackson ImmunoResearch) were coupled to the surface of a CM5 chip, and the anti-CD112R hybridoma antibodies were each captured by using the chip, after which recombinant hCD112R mFc proteins at different concentrations were injected into the CM5 chip.

Row | Kd [pM] | Binder
34 | 17.4 | B1
35 | 20.5 | B2
36 | 13.4 | B3

target: T1, hCD112R mFC recombinant protein; assay: FACS competition, hCD112R mFc on CHO CD112 cells; remark: another data set of the same source
Description: as §1
As shown in FIG. 5 (a and b) and Table 8, the following 13 chimeric antibodies were all capable of effectively blocking the binding of the CD112R protein to CHO-CD112 cells.

Row | IC50 [µg/mL] | Binder
37 | 0.979 | B4
38 | 0.965 | B5
39 | 0.708 | B6
40 | 0.959 | B7
41 | 1.02 | B8

target: T4, human CD112R on CHO-CD112R cells; assay: FACS on CHO-CD112R cells; EC50 Ref/EC50 antibody
Description: as §3

Row | Relative activity (%) | Binder
42 | 268 | B4
43 | 3990 | B5
44 | 1640 | B6
45 | 1630 | B7
46 | 3050 | B8
